Patent US20160115212A1

Target: HLA class II molecules of healthy donors carrying different HLA DR alleles
Test: cell-based or functional assay

For HSKIIIIKKGHAK [IGFBP3 169-181], the IFNγ producing CD4-positive T-cells, donor 1, after an additional round of stimulation was 0.09 to 0.13%, the IFNγ producing CD4-positive T-cells, donor 1, after the third stimulation was 0.05 to 0.1% and the maximal frequency of IFNγ producing CD4^+T-cells, donor 2 was 0.05%. The maximal frequency of IFNγ producing CD4^+T-cells, donor 3 was 0.07%.
